Experiment [1] concerns the target human airway smooth muscle cell mannose receptor (huASMC-MR) (human) (UniProt Q9UBG0). The experiment can be described thus: flow cytometry (cell sorting) of bovine airway smooth muscle cells transfected with full-length huASMC-MR cDNA plasmid; vector control 57/1718 cells.
For experiment [2], the target named is bovine airway smooth muscle cell mannose receptor (bovine). The experiment can be described thus: cell-based or functional assay.

For the substance “FITC-ManBSA (FITC-labelled mannosylated bovine serum albumin) (from UniProt P02769 25-607)”, the percent of cells with increased fluorescence intensity in experiment [1] was 61%.
“b hexosaminidase A (human placental β-hexosaminidase, Sigma) (from UniProt P06865 89-529; P07686 122-556) (enzyme)” showed a b hexosaminidase-induced mitogenesis in bovine ASMC, inhibition by antisense huASMC-MR morpholino oligonucleotides (5 µM) in experiment [2] of 37%.

The values above are taken from US20050085442A1.
